Patent US20230374458A1, “COMPOSITIONS AND METHODS FOR GENERATING HUMAN YOLK SAC-LIKE HEMATOPOIETIC CELLS” (UNIVERSITY HEALTH NETWORK, priority 2020, published 2023)

Legend:
[1] = tested on: H1 human embryonic stem cell (hESC) line; test: Induction of KDR+CD235a/b+ mesoderm from H1 hESCs (Activin A titration, flow cytometry); assay type: cell-based
Method: (§1) hPSC differentiation to the hematopoietic lineage was performed in StemPro-34 media supplemented with penicillin/streptomycin (1%, ThermoFisher), L-glutamine (2 mM, ThermoFisher), ascorbic acid (50 μg/mL, Millipore Sigma), transferrin (150 μg/mL, ROCHE), monothioglycerol (50 μg/mL, Millipore Sigma) and other stage-specific factors for example as described below. Differentiation cultures were maintained in hypoxic conditions (37° C., 5% CO2, 5% O2) unless otherwise indicated. On day 0, hPSC cultures at 80-90% confluency were treated with TrypLE for 3 minutes at 37° C. Thereafter, the 80-90% of the TrypLE was aspirated and the cultures were incubated at 37° C. for an additional 2 minutes. […]
(§2) EBs prior to day 9 of differentiation, monolayer cultures and cultures aggregated after cell sorting were dissociated with Trypsin (Corning) for 5 minutes at 37° C. […] For fluorescence-activated cell sorting (FACS), cells were stained, sorted and collected in StemPro-34 media supplemented with penicillin/streptomycin (1%), L-glutamine (2 mM) and DNaseI. […] Thereafter, the sorted cells were counted and resuspended at 250,000 cells/mL in StemPro-34 media supplemented with recombinant factors appropriate for the day of differentiation. […]

[2] = tested on: CHOPWT10 human iPSC line; test: Induction of KDR+CD235a/b+ mesoderm from CHOPWT10 iPSCs (Activin A titration, flow cytometry); assay type: cell-based
Method: as §1, §2

B1: Activin A: activin receptor agonist; human Activin A (Uniprot accession number: P08476), recombinant, from R&D Systems (protein, UniProt P08476 311-426, looked up)
Inhibin beta A chain: GLECDGKVNICCKKQFFVSFKDIGWNDWIIAPSGYHANYCEGECPSHIAGTSGSSLSFHSTVINHYRMRGHSPFANLKSCCVPTKLRPMSMLYYDDGQNIIKKDIQNMIVEECGCS
proportion of KDR+CD235a/b+ cells ([1]; 6 ng/mL Activin A with 10 ng/mL BMP4 and 5 ng/mL FGF2, day 4 of differentiation, H1): greater than 30%
frequency of CD235a/b+ cells ([1]; Activin A 0 to 10 ng/mL with BMP4 10 ng/mL and FGF2 5 ng/mL from day 1 of differentiation): increased in an Activin A dose-dependent manner and plateaued when its concentration exceeded 6 ng/mL
proportion of KDR+CD235a/b+ cells ([2]; 2 ng/mL Activin A, CHOPWT10 human iPSC line, day 4): greater than 30%
proportion of KDR+CD235a/b+ cells at day 4 of differentiation ([2]; 2 or 4 ng/mL Activin A within 0 to 10 ng/mL titration, with BMP4 10 ng/mL and FGF2 5 ng/mL, days 1 to 4): highest proportion
